Publication PMC6294567, “The C-terminal D/E-rich domain of MBD3 is a putative Z-DNA mimic that competes for Zα DNA-binding activity” (Nucleic Acids Research, 2018)
Several values for one entry are separate records, joined by “and”; a condition that tells them apart may be missing. Identical values can stand only once.

How the values were obtained:
[1] = test system: replication protein A (RPA); settings: cited from earlier work
From the text: This is the first report to identify a particular protein sequence with D/E repeats capable of competition with Z-DNA for binding to Zα, while the potential of acidic residues for DNA mimicry, referring to B-DNA or ssDNA, have been observed previously.

[2] = target: MBD3 MBD domain (MBD3MBD) (Homo sapiens, UniProt O95983 1-72); test: fluorescence polarization; high affinity similar to Zα; Kd value not in material; FP: 20 mM HEPES-NaOH pH 7.5, 50 mM NaCl, 1 mM DTT, 30 ul; temperature not stated; CD buffer not in material; settings: protein: recombinant; tags: His6 removed by TEV; unlabelled version also purchased; blunt; self-complementary duplex, annealed from 85°C
[3] = target: T1, Zα (Z-DNA binding domain of ADAR1) (Homo sapiens, UniProt P55265 133-209); test: fluorescence polarization; FP: 20 mM HEPES-NaOH pH 7.5, 50 mM NaCl, 1 mM DTT, 30 ul; temperature not stated; CD buffer not in material; settings: protein: recombinant; tags: His10 (pET16b) or tag-free after TEV (pMCSG7); chain copies: 2; unlabelled version also purchased; blunt; self-complementary duplex, annealed from 85°C
T1 sequence: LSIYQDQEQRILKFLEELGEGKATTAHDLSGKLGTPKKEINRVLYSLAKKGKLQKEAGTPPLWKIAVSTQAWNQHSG

Sso7d = target: T2, Sso7d (UniProt P39476 2-64); test: as above; settings: unlabelled version also purchased; blunt; self-complementary duplex, annealed from 85°C
T2 sequence: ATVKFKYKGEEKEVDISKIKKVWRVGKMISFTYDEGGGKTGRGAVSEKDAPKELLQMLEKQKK

His10-Zα = His10-Zα pull-down from HEK293 lysate with LC-MS/MS; format: binding, human; settings: HEK293 cell lysate, Ni beads
Procedure: HEK293 cells were collected and the pellet was resuspended in the lysis buffer [(50 mM Tris–HCl pH7.5, 1% NP-40, 150 mM NaCl, 10 mM imidazole, 0.1 mM PMSF, 90 U/ml Benzonaes (Novagen) and EDTA-free protease inhibitor cocktail tablet (Roche)]. Lysate was clarified by centrifugation for 30 min at 16 000 × g at 4°C. The protein concentration was measured by using Bradford assay. 20 mg of HEK293 cell lysate was pre-cleaned by adding 1 ml of Ni sepharose (50% slurry) (GE Healthcare) and rotated at 4°C for 1 h. Add 1 mg of purified His10-Zα protein (buffer only as a negative control) to the pre-cleaned lysate and rotate at 4°C overnight. To capture His10-Zα protein, add 0.2 ml Ni sepharose (50% slurry) and incubate at 4°C for 1 h in a rotation wheel. […] Add trichloroacetic acid to precipitate and concentrate the eluates. The concentrated eluates were resuspended in NuPAGE LDS sample buffer (Invitrogen), run on NuPAGE 12% Bis–Tris gels (Invotrogen) and stained using Instant Blue (Expedeon). […]
To identify Zα-interacting proteins, the entire gel lanes were divided into several horizontal slices and subjected to in-gel trypsin digestion. The digested samples were analyzed by LC–MS/MS using LTQ-Orbitrap XL mass spectrometer (Thermo Fisher Scientific, Bremen, Germany). […]

[4] = Stability of E. coli-expressed protein; format: physicochemical; settings: recombinant E. coli-expressed protein
Zα [5] = target: T3, Zα (Homo sapiens, UniProt P55265); test: SEC / SDS-PAGE complex formation with Zα; format: binding; settings: Zα 100 μM : protein 25 μM (4:1), ice 1 h, 20 mM Tris–HCl pH 7.5, 50 mM NaCl, 1 mM TCEP
T3 construct: Zα of human ADAR1; residues 133–209; His6 (pMCSG7, followed by a TEV site) (N, cleaved yes); made in house; host or cells: E. coli BL21(DE3)
T3 sequence (P55265 133-209): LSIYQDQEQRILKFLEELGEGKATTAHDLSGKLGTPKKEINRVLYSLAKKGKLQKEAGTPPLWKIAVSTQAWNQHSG
Procedure: Equimolar amounts (0.1 mM) of Zα and DE-rich peptide were incubated on ice for 1 h in a buffer containing 20 mM HEPES–NaOH pH 7.5, 50 mM NaCl, 1 mM DTT. The mixture was then loaded on a Superdex 30 16/600 column (GE Healthcare) equilibrated in the same buffer. The fractions from the peaks corresponding to Zα alone and the complex of Zα and DE-rich peptide were collected and used for chemical cross-linking.
To analyze complex formation of Zα and other proteins (MBD3, MBD or MBDDE), the mixtures were incubated on ice for 1 h in a buffer containing 20 mM Tris–HCl pH 7.5, 50 mM NaCl, 1 mM TCEP. The mixture was then loaded on a Superdex 75 or Superdex 200 increase 10/300 column (GE Healthcare).

d(CG)6 duplex = test: Circular dichroism of d(CG)6 DNA conformation
Procedure: CD spectra were measured at 24°C on a J-815 Spectrometer (JASCO) using a 1 mm path length quartz cell. Prepare 7.5 μM DNA duplex in a buffer consisting of 5 mM HEPES–NaOH pH 7.5, 25 mM NaCl and 1 mM DTT, and in the absence or presence of indicated concentration of proteins. Spectra were recorded between 235 and 305 nm wavelength with a data pitch of 1 nm, bandwidth of 1 nm and with two accumulations at a scanning speed of 10 nm/min.
Figure 6. Zα can compete with the MBD domain for binding to d(CG)6, but not vice versa. (A) CD spectra of the d(CG)6 duplex in the presence of Zα. CD spectra of (B) the d(CG)6 and (C) the d(C^mG)6 duplex, respectively, in the presence of the MBD domain. (D) Monitoring of the change in CD spectra with the addition of increased amounts of Zα to the pre-incubated mixture of the MBD domain and d(CG)6. (E) Monitoring of the change in CD spectra with the addition of increased amount of the MBD domain to the pre-incubated mixture of Zα and d(CG)6. Spectra are expressed in absolute values of ellipticity in millidegrees (mdeg).

Zα [6] = target: T3, Zα; test: SEC-MALS of Zα and Zα-D/E-rich peptide complexes; format: binding; settings: Zα 2.7 mg/ml, expected ~8.8
Procedure: SEC−MALS measurements were conducted using a miniDAWN TREOS detector and an Optilab T-rEX differential refractive index detector (Wyatt Technology Corporation) coupled to an Agilent 1260 Infinity HPLC system. The SEC experiments were performed on an ENrich SEC 70 10 × 300 column (Bio-Rad) equilibrated in a buffer containing 20 mM HEPES–NaOH pH 7.5, 50 mM NaCl, 1 mM TCEP and 0.02% NaN3. The protein Zα alone (2.7 mg/ml) or the mixture of Zα and the D/E-rich peptide at various molar ratios and incubation periods as indicated was loaded onto the column at a flow rate of 0.5 ml/min. Bovine serum albumin (A1900; Sigma) was used for system calibration and molecular weights were calculated using ASTRA 6 software (Wyatt Technology Corporation) with a dn/dc value of 0.185 ml/g.
Figure 3. Analysis of complex formation of Zα and the D/E-rich domain. […] The left y axis represents the normalized UV absorbance at 280 nm, while the right y axis represents the molecular weight (Da). The horizontal traces show the calculated molecular weight. […] TEXT PRINTED IN THE PICTURE: (C) Zα: Measured MW (kDa): 9.8 ± 0.1; Expected MW (kDa): ~8.8 | (C) 1Zα: 1DE: Measured MW (kDa): 12.7 ± 0.1; Expected MW (kDa): ~11.6 | (C) 2Zα: 1DE: Measured MW (kDa): 20.8 ± 0.3; Expected MW (kDa): ~20.5

[7] = target: D/E-rich peptide of MBD3, unlabelled (full-length D/E-rich peptide) (human); test: SEC-MALS; Zα and D/E-rich peptide, equimolar (1, 16, 29 h) or 4:1 (1 h on ice); ENrich SEC 70 column; 20 mM HEPES-NaOH pH 7.5, 50 mM NaCl, 1 mM TCEP, 0.02% NaN3

In the case of “EDWAGLDEDED [DSS1, protein whose D/E-rich segment (EDWAGLDEDED) acts as a DNA mimic]”, the “attenuation of the affinity of RPA for ssDNA” value [1] is listed as “acts as a DNA mimic to attenuate the affinity of replication protein A (RPA) for ssDNA”.

B1: d(CG)6 (dsDNA)
DNA 1: CGCGCGCGCGCG
DNA 2: CGCGCGCGCGCG
For B1, the binding result [2] was “binds”, the Kd [3] was 40.3 ± 3.2 nM and the Kd (Sso7d) was 262 ± 23 nM.

B2: MBD3: full-length human MBD3; residue 1–291 (protein)
chain: MERKRWECPALPQGWEREEVPRRSGLSAGHRDVFYYSPSGKKFRSKPQLARYLGGSMDLSTFDFRTGKMLMSKMNKSRQRVRYDSSNQVKGKPDLNTALPVRQTASIFKQPVTKITNHPSNKVKSDPQKAVDQPRQLFWEKKLSGLNAFDIAEELVKTMDLPKGLQGVGPGCTDETLLSAIASALHTSTMPITGQLSAAVEKNPGVWLNTTQPLCKAFMVTDEDIRKQEELVQQVRKRLEEALMADMLAHVEELARDGEAPLDKACAEDDDEEDEEEEEEEPDPDPEMEHV
For B2, the “pull-down by Zα” value (His10-Zα) was “could be pulled down by Zα”, the “protein stability (in words)” value [4] was “unstable with a large amount of aggregation and degradation” and the “complex formation with Zα on SEC” value (Zα [5]) was “almost no detectable stable complex formation of Zα and MBD3”.

B3: Zα, tag-free (Z-DNA binding domain of human ADAR1, residues 133-209), P55265 133-209 (domain or fragment)
chain: LSIYQDQEQRILKFLEELGEGKATTAHDLSGKLGTPKKEINRVLYSLAKKGKLQKEAGTPPLWKIAVSTQAWNQHSG
For B3, the “DNA conformation after binding” value (d(CG)6 duplex; CD 235-305 nm, 24°C, 7.5 μM DNA duplex, 5 mM HEPES–NaOH pH 7.5, 25 mM NaCl, 1 mM DTT) was “induced the Z-DNA formation”, the “competition for binding to d(CG)6 (Zα added to pre-incubated MBD domain and d(CG)6)” value (d(CG)6 duplex; CD, increasing Zα) was “able to compete with the MBD domain for binding to d(CG)6” and the “measured MW, Zα alone” value (Zα [6]) was 9.8 ± 0.1 kDa. The stoichiometry N (Zα per D/E-rich peptide) [7] was 2 and 1.
